Data reported in patent publication US20250332264A1, “GhR-BINDING PEPTIDE AND COMPOSITION COMPRISING SAME” (priority 2021, published 2025).
Starred links: 1 amine or outer side, 2 acyl side, 3 side chain; linkers in the order of their positions; H or OH if unused. Positions of bridges follow the written chain, without caps; N, C: chain ends. Non-standard residues stand in square brackets, D forms with d. Residues, ends and D or L forms follow the SMILES beside them. Groups on a side chain read outwards from the residue. *: point of attachment. KCOpipzaa = N6-(4-(carboxymethyl)piperazine-1-carbonyl)-L-lysine, O=C(NCCCC[C@H](N[*:1])C(=O)[*:2])N1CCN(CC(=O)[*:3])CC1; A4pipaa = 4-amino-1-(carboxymethyl)piperidine-4-carboxylic acid, O=C(C1(N[*:1])CCN(CC(=O)[*:3])CC1)[*:2]; X3 = NC(=O)[C@H](CCCCN*)NC(=O)CC[C@H](NC(=O)CC[C@H](NC(=O)CCCCCCCCCCCCCCC(=O)O)C(=O)O)C(=O)O; X6 = NC(=O)[C@H](CCCCN*)NC(=O)CC[C@H](NC(=O)CC[C@H](NC(=O)CCCCCCCCCCCCCC(=O)O)C(=O)O)C(=O)O; X10 = NC(=O)[C@H](CCCCN*)NC(=O)CC[C@H](NC(=O)CC[C@H](NC(=O)CCCc1ccc(I)cc1)C(=O)O)C(=O)O; Trp(1-CH2CO) = O=C([C@H](Cc1cn(CC(=O)[*:3])c2ccccc12)N[*:1])[*:2]; Trp(5-OMe) = COc1ccc2[nH]cc(C[C@H](N)C(=O)O)c2c1; Butanoyl(4-(4-I-phenyl)) = O=C(CCCc1ccc(I)cc1)*; Trp(5-OH) = N[C@@H](Cc1c[nH]c2ccc(O)cc12)C(=O)O; Phe(4-COOH) = N[C@@H](Cc1ccc(C(=O)O)cc1)C(=O)O; Piperazinyl(4-CH2COOH) = O=C(O)CN1CCN(*)CC1; C16 diacid = O=C(O)CCCCCCCCCCCCCCC(=O)*; γGlu = O=C(O)[C@H](CCC(=O)[*:2])N[*:1]; Ahp(2) = CCCCC[C@H](N)C(=O)O; NMeK = CN[C@@H](CCCCN)C(=O)O; Aib = CC(C)(N)C(=O)O; CO = O=C([*:1])[*:2]

T1: Recombinant human GhR-Fc protein (R&D Systems) (human, UniProt P10912 19-264, limits assumed)
T1 construct: Bought from R&D Systems; Amine-coupled to a CM5 chip in the SPR assay; also called hGhR; recombinant human GhR protein fused to Fc portion of human IgG; not shown: Fc portion of human IgG
T1 sequence (looked up): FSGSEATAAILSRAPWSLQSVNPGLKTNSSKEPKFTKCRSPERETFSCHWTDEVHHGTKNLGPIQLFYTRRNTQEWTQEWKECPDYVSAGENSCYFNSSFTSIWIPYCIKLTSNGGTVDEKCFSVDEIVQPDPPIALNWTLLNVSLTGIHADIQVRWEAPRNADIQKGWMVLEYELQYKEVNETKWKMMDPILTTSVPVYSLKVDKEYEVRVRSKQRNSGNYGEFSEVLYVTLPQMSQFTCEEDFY

B1: GhR_PD_139 (peptide)
peptide: {CH2CO}-Y[NMeK]VVSN[Trp(1-CH2CO)]YK[Trp(5-OH)][Aib]VCG-NH2
modifications: thioether N-13; lactam 2-7
SMILES: CC(C)[C@@H]1NC(=O)[C@H](C(C)C)NC(=O)[C@@H]2CCCCNC(=O)Cn3cc(c4ccccc43)C[C@H](NC(=O)[C@H](CC(N)=O)NC(=O)[C@H](CO)NC1=O)C(=O)N[C@@H](Cc1ccc(O)cc1)C(=O)N[C@@H](CCCCN)C(=O)N[C@@H](Cc1c[nH]c3ccc(O)cc13)C(=O)NC(C)(C)C(=O)N[C@@H](C(C)C)C(=O)N[C@H](C(=O)NCC(N)=O)CSCC(=O)N[C@@H](Cc1ccc(O)cc1)C(=O)N2C
notes: also called Compound No. 1

biological target: T2, Recombinant human GhR-Fc protein (Homo sapiens, UniProt P10912); experiment: Binding activity of hGhR binding peptide by surface plasmon resonance (SPR), Biacore T200, single-cycle kinetics; conditions: human GhR-Fc immobilized on CM5 chip, KD calculated from ka and kd
T2 construct: purchased R&D Systems
Protocol: (§1) SPR assay was performed using Biacore T200 (cytiva: Former GE Healthcare). After the equilibration of Series S Sensor Chip CM5 (produced by cytiva: Former GE Healthcare) with Running Buffer (HBS-EP with 1% (v/v) DMSO), an EDC/NHS mixture was injected at a flow rate of 10 μL/min for 7 minutes to thereby activate the functional groups on sensor chip. Recombinant human GhR-Fc protein (R&D Systems) in 10 mM Acetate (pH4.0) was injected immobilized to at a flow rate of 5 μL/min. It took 7 minutes to immobilize the GhR on the substrate surfaces of the sensor chip. Then Ethanolamine was injected at a flow rate of 10 μL/min for 7 minutes. 1M Ethanolamine (aq.) was injected at a flow rate of 10 μL/min for 420 seconds for capping.
(§2) Using these Peptide Samples, kinetics of peptides against human GhR-Fc protein were measured. The method adopted for sample measurement was a single-cycle kinetics method. The analysis was conducted using the evaluation software provided with Biacore T200. A DMSO correction curve obtained by solvent correction measurements was applied for the analysis. Kinetics fitting was done on the difference data obtained by subtracting the baseline data from sample measurement data. KD values were calculated based on the association rate constant (ka) and dissociation rate constant (kd).
Furthermore, “obs. m/z [M+2H]2+” indicates the ESI-MS(+) observed value. Unless otherwise specified, this is bivalent ([M+2H]^2+).

T2 sequence (P10912 with tags, fused parts or gaps limits assumed): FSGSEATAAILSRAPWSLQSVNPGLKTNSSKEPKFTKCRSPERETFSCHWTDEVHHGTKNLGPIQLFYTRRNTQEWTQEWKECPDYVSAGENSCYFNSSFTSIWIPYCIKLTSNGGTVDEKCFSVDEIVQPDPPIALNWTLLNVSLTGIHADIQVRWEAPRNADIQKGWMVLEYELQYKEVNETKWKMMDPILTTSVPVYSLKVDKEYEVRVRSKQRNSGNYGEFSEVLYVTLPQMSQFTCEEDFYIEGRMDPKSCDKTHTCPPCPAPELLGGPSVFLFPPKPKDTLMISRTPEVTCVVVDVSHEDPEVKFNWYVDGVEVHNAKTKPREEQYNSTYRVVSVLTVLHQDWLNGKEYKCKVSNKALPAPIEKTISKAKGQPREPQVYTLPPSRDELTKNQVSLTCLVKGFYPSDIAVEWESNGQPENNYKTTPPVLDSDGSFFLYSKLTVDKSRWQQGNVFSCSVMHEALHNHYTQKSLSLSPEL

`CC(C)[C@@H]1NC(=O)[C@H](C(C)C)NC(=O)[C@@H]2CCCCNC(=O)Cn3cc(c4ccccc43)C[C@H](NC(=O)[C@H](CC(N)=O)NC(=O)[C@H](CO)NC1=O)C(=O)N[C@@H](Cc1ccc(C(=O)O)cc1)C(=O)N[C@@H](CCCCN)C(=O)N[C@@H](Cc1c[nH]c3ccc(O)cc13)C(=O)NC(C)(C)C(=O)N[C@@H](C(C)C)C(=O)N[C@H](C(=O)NCC(=O)N1CCC[C@H]1C(=O)N[C@H](CO)C(=O)N[C@H](CO)C(=O)N[C@H](CO)C(=O)NCCCC[C@H](NC(=O)CC[C@H](NC(=O)CC[C@H](NC(=O)CCCc1ccc(I)cc1)C(=O)O)C(=O)O)C(N)=O)CSCC(=O)N[C@@H](Cc1ccc(C(=O)O)cc1)C(=O)N2C` [Compound 14] ({CH2CO}-[Phe(4-COOH)][NMeK]VVSN[Trp(1-CH2CO)][Phe(4-COOH)]K[Trp(5-OH)][Aib]VCGP[dS][dS][dS]-X10; lactam 2-7; thioether N-13) and `CCCCC[C@@H]1NC(=O)[C@H](Cc2ccc(C(=O)O)cc2)NC(=O)[C@@H]2Cc3cn(c4ccccc34)CC(=O)NCCCC[C@@H](C(=O)N[C@@H](C(C)C)C(=O)N[C@@H](C(C)C)C(=O)N[C@@H](CO)C(=O)N[C@@H](CC(N)=O)C(=O)N2)N(C)C(=O)[C@H](Cc2ccc(C(=O)O)cc2)NC(=O)CSC[C@@H](C(=O)NCCCC[C@H](NC(=O)CC[C@H](NC(=O)CC[C@H](NC(=O)CCCc2ccc(I)cc2)C(=O)O)C(=O)O)C(N)=O)NC(=O)[C@H](C(C)C)NC(=O)C(C)(C)NC(=O)[C@H](Cc2c[nH]c3ccc(O)cc23)NC1=O` [Compound 6] ({CH2CO}-[Phe(4-COOH)][NMeK]VVSN[Trp(1-CH2CO)][Phe(4-COOH)][Ahp(2)][Trp(5-OH)][Aib]VC-X10; lactam 2-7; thioether N-13) are within 1.5-fold of each other in Kd: 1.88 nM for the first, 1.82 nM for the second.

First: CC(C)[C@@H]1NC(=O)[C@H](C(C)C)NC(=O)[C@@H]2CCCCNC(=O)Cn3cc(c4ccccc43)C[C@H](NC(=O)[C@H](CC(N)=O)NC(=O)[C@H](CO)NC1=O)C(=O)N[C@@H](Cc1ccc(C(=O)O)cc1)C(=O)N[C@@H](CCCCN)C(=O)N[C@@H](Cc1c[nH]c3ccc(O)cc13)C(=O)NC(C)(C)C(=O)N[C@@H](C(C)C)C(=O)N[C@H](C(=O)NCCCC[C@H](NC(=O)CC[C@H](NC(=O)CC[C@H](NC(=O)CCCCCCCCCCCCCC(=O)O)C(=O)O)C(=O)O)C(N)=O)CSCC(=O)N[C@@H](Cc1ccc(C(=O)O)cc1)C(=O)N2C [Compound 60] ({CH2CO}-[Phe(4-COOH)][NMeK]VVSN[Trp(1-CH2CO)][Phe(4-COOH)]K[Trp(5-OH)][Aib]VC-X6; lactam 2-7; thioether N-13)
Second: CC(C)[C@@H]1NC(=O)[C@H](C(C)C)NC(=O)[C@@H]2CCCCNC(=O)Cn3cc(c4ccccc43)C[C@H](NC(=O)[C@H](CC(N)=O)NC(=O)[C@H](CO)NC1=O)C(=O)N[C@@H](Cc1ccc(C(=O)O)cc1)C(=O)N[C@@H](CCCCNC(=O)N1CCN(CC(=O)O)CC1)C(=O)N[C@@H](Cc1c[nH]c3ccc(O)cc13)C(=O)NC(C)(C)C(=O)N[C@@H](C(C)C)C(=O)N[C@H](C(=O)NCCCC[C@H](NC(=O)CC[C@H](NC(=O)CC[C@H](NC(=O)CCCCCCCCCCCCCCC(=O)O)C(=O)O)C(=O)O)C(N)=O)CSCC(=O)N[C@@H](Cc1ccc(O)cc1)C(=O)N2C [Compound 22] ({CH2CO}-Y[NMeK]VVSN[Trp(1-CH2CO)][Phe(4-COOH)]K([CO-Piperazinyl(4-CH2COOH)])[Trp(5-OH)][Aib]VC-X3; lactam 2-7; thioether N-13)
The Kd of the first is 3.6-fold lower: 3.1 nM for the first, 11.2 nM for the second.

`COc1ccc2[nH]cc(C[C@@H]3NC(=O)[C@H](CC(N)=O)NC(=O)[C@H](CO)NC(=O)[C@H](C(C)C)NC(=O)[C@H](C(C)C)NC(=O)[C@H](CCCCNC(=O)CC[C@H](NC(=O)CC[C@H](NC(=O)CCCc4ccc(I)cc4)C(=O)O)C(=O)O)N(C)C(=O)[C@H](Cc4ccc(O)cc4)NC(=O)CSC[C@@H](C(=O)NCC(=O)N4CCC[C@H]4C(=O)N[C@H](CO)C(=O)N[C@H](CO)C(=O)N[C@H](CO)C(N)=O)NC(=O)[C@H](C(C)C)NC(=O)C(C)(C)NC(=O)[C@H](Cc4c[nH]c5ccc(O)cc45)NC(=O)[C@H](CCCCNC(=O)N4CCN(CC(=O)O)CC4)NC(=O)[C@H](Cc4ccc(C(=O)O)cc4)NC3=O)c2c1` [Compound 49] ({CH2CO}-Y[NMeK]([γGlu-γGlu-Butanoyl(4-(4-I-phenyl))])VVSN[Trp(5-OMe)][Phe(4-COOH)]K([CO-Piperazinyl(4-CH2COOH)])[Trp(5-OH)][Aib]VCGP[dS][dS][dS]-NH2; thioether N-13) showed a Kd of 6.31 nM.

biological target: T1, Recombinant human GhR-Fc protein (R&D …); experiment: SPR, Biacore T200, single-cycle kinetics, GhR-Fc immobilised on CM5; conditions: not given
Protocol: as §1, with “capping. 10 mM Peptides in DMSO were diluted to obtain 10 uM with Running Buffer, and prepared 100 nM, 50 nM, 25 nM, 10 nM, 5 nM of each peptide solutions (Peptide Samples).” for “capping.”
as §2

{CH2CO}-Y[NMeK]VVSN[Trp(1-CH2CO)][Phe(4-COOH)]K[Trp(5-OH)][Aib]VCK([Glu-Glu-Butanoyl(4-(4-I-phenyl))])-NH2 (thioether N-13; lactam 2-7, also called Compound No. 26) [GhR_PD_216] and {CH2CO}-Y[NMeK]VVSN[Trp(1-CH2CO)]Y[KCOpipzaa][Trp(5-OH)][Aib]VCK([Glu-Glu-C16 diacid])-NH2 (thioether N-13; lactam 2-7, also called Compound No. 27) [GhR_PD_234] are within 1.5-fold of each other in Kd: 1.59 nM for the first, 1.79 nM for the second.

Going from B1 to {CH2CO}-Y[NMeK]VVSN[Trp(1-CH2CO)]YK[Trp(5-OH)][A4pipaa]VCK([Glu-Glu-C16 diacid])-NH2 (thioether N-13; lactam 2-7, also called Compound No. 29) [GhR_PD_237], the Kd rises from 0.7 nM to 1.57 nM (2.2-fold).

Going from {CH2CO}-Y[NMeK]VVSN[Trp(1-CH2CO)]YK[Trp(5-OH)][Aib]VCK([Glu-Glu-Butanoyl(4-(4-I-phenyl))])-NH2 (thioether N-13; lactam 2-7, also called Compound No. 32) [GhR_PD_246] to {CH2CO}-Y[NMeK]VVSN[Trp(1-CH2CO)][Phe(4-COOH)]K[Trp(5-OH)][Aib]VCK([Glu-Glu-C16 diacid])-NH2 (thioether N-13; lactam 2-7, also called Compound No. 24) [GhR_PD_232], the Kd rises from 0.98 nM to 2.59 nM (2.6-fold). The first binds more tightly here.

Compared with {CH2CO}-[Phe(4-COOH)][NMeK]VVSN[Trp(1-CH2CO)]YK[Trp(5-OH)][A4pipaa]VCK([Glu-Glu-C16 diacid])-NH2 (thioether N-13; lactam 2-7, also called Compound No. 18) [GhR_PD_238], {CH2CO}-[Phe(4-COOH)][NMeK]VVSN[Trp(1-CH2CO)]YK[Trp(5-OH)][Aib]VCK([Glu-Glu-Butanoyl(4-(4-I-phenyl))])-NH2 (thioether N-13; lactam 2-7, also called Compound No. 21) [GhR_PD_215] is 2.2-fold lower in Kd: 2.4 nM for the first, 1.07 nM for the second.

Compared with {CH2CO}-Y[NMeK]VVSN[Trp(1-CH2CO)][Phe(4-COOH)]K[Trp(5-OH)][A4pipaa]VCK([Glu-Glu-C16 diacid])-NH2 (thioether N-13; lactam 2-7, also called Compound No. 23) [GhR_PD_239], {CH2CO}-Y[NMeK]VVSN[Trp(1-CH2CO)]YK[Trp(5-OH)][Aib]VCG-NH2 (thioether N-13; lactam 2-7 via G, also called Compound No. 2) [GhR_PD_140] is 1.9-fold lower in Kd: 2.29 nM for the first, 1.22 nM for the second. The second binds more tightly here.

For {CH2CO}-[Phe(4-COOH)][NMeK]VVSN[Trp(1-CH2CO)]YK[Trp(5-OH)][Aib]VCK([Glu-Glu-C16 diacid])-NH2 (thioether N-13; lactam 2-7, also called Compound No. 19) [GhR_PD_231], the Kd was 1.93 nM.
